Source: patent publication US20160158332A1 (US Dept. of Health and Human Services, published 2016)
Ends that are not written are not given here.

Molecular target: T1, recombinant EcPyAMA1 (P. yoelii YM AMA1 residues 59-479 with a C-terminal histidine tag, E. coli, refolded) (Plasmodium yoelii YM)
T1 construct: not shown: C-terminal histidine tag
T1 chain: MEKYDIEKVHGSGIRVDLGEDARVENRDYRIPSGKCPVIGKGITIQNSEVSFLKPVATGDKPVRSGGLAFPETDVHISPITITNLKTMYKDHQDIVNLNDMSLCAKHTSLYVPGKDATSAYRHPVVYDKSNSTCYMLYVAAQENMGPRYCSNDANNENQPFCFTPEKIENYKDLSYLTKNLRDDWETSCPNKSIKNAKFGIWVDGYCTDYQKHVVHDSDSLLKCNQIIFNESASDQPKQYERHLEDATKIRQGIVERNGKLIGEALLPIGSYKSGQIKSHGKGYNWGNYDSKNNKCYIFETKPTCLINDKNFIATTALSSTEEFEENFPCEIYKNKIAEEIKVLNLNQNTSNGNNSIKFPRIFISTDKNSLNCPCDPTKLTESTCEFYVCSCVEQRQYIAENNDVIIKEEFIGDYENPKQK
Experiment: binding of RON2L peptide to PyAMA1, FIG. 3E

B1: PyRON2L peptide with the two cysteines mutated to alanines (Cys 1856 and 1868 to Ala) (peptide)
peptide: DITQHATDIGMGPSTSAYTSLLPPPKSIAIQQTVKTVLTNSTLASMK-NH2
notes: they are the two cysteines of the peptide; also called RON2Lc/a; c/a
binding result: no binding
